Data on one molecule can be found in article PMC4342785 (Nature, 2015).

In the assay the target is T1, mouse core RAG1 (384–1008aa) (mouse, UniProt P15919 384-1008).
T1 sequence (looked up): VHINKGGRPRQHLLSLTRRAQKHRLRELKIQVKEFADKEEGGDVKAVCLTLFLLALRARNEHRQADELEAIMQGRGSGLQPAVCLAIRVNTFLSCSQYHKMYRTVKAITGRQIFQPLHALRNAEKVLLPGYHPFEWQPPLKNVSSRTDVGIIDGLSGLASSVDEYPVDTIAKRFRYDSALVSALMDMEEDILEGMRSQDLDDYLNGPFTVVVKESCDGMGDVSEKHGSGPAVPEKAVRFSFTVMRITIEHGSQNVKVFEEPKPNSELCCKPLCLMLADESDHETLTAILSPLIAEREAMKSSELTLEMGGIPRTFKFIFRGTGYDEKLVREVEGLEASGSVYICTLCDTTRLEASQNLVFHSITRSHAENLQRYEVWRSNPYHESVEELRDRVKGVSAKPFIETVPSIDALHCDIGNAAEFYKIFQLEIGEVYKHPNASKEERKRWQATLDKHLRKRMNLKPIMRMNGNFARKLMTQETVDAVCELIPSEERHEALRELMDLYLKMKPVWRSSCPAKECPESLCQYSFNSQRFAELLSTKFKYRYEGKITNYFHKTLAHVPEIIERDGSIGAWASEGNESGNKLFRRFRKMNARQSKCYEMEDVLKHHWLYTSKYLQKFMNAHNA
As to the kind of experiment: crystal structure.

B1: mouse core RAG2 (1–387aa), M1V (domain or fragment, UniProt P21784 1-387, looked up)
chain: VSLQMVTVGHNIALIQPGFSLMNFDGQVFFFGQKGWPKRSCPTGVFHFDIKQNHLKLKPAIFSKDSCYLPPLRYPATCSYKGSIDSDKHQYIIHGGKTPNNELSDKIYIMSVACKNNKKVTFRCTEKDLVGDVPEPRYGHSIDVVYSRGKSMGVLFGGRSYMPSTQRTTEKWNSVADCLPHVFLIDFEFGCATSYILPELQDGLSFHVSIARNDTVYILGGHSLASNIRPANLYRIRVDLPLGTPAVNCTVLPGGISVSSAILTQTNNDEFVIVGGYQLENQKRMVCSLVSLGDNTIEISEMETPDWTSDIKHSKIWFGSNMGNGTIFLGIPGDNKQAMSEAFYFYTLRCSEEDLSEDQKIVSNSQTSTEDPGDSTPFEDSEEFCFS
On to B1, for which the binding result was “binds”.
